The record followed here is PMC10329844, “Regulatory architecture of housekeeping genes is driven by promoter assemblies”.

Data set [1] has as its target T1, Ronin (Thap11), Prospec PRO-2009 (UniProt Q96EK4 1-314). In words: competition; no effect on Ronin-stimulated circularization of N3; Circularization: 1x T4 ligase buffer, 100 ng DNA, 1.358 uM protein, 10 uL, 25 min RT, then ligase 20 min RT. AFM: 1x LightShift binding buffer, 350 mM KCl, 1 mM EDTA, 6% glycerol, 10 min on ice, then 0.4x T4 ligase buffer, 20% glycerol, 1 mM EDTA, 2 mM GTP, 30 min RT. The conditions noted are these: protein: commercial; blunt.

Data set [2] concerns the target T1, Ronin (Thap11), Prospec PRO-2009. In words: competition; abolishes Ronin-stimulated circularization of N3; Circularization: 1x T4 ligase buffer, 100 ng DNA, 1.358 uM protein, 10 uL, 25 min RT, then ligase 20 min RT. AFM: 1x LightShift binding buffer, 350 mM KCl, 1 mM EDTA, 6% glycerol, 10 min on ice, then 0.4x T4 ligase buffer, 20% glycerol, 1 mM EDTA, 2 mM GTP, 30 min RT. The conditions noted are these: protein: commercial; blunt.

T1 sequence (Q96EK4 whole entry): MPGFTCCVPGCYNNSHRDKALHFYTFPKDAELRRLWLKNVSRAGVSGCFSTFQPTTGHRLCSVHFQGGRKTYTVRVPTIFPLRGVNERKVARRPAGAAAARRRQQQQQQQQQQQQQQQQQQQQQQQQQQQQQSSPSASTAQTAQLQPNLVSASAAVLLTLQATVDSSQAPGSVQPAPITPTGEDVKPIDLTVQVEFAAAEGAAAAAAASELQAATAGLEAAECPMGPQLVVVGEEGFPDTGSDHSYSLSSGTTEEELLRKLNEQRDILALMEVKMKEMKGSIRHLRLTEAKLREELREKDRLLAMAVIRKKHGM

B1: C2 competitor (both RBM half-sites mutated) (dsDNA)
DNA 1: ACTAGCTCTTGATTCCGGAGCTGGAGGCAATCTCT
DNA 2: AGAGATTGCCTCCAGCTCCGGAATCAAGAGCTAGT
B1: the binding result in data set [1] is recorded as “no binding”.

B2: C1 competitor (RBM in random flanks) (dsDNA)
DNA 1: ACTAGCTCTCTGGGAATTGTAGTTCGGCAATCTCT
DNA 2: AGAGATTGCCGAACTACAATTCCCAGAGAGCTAGT
In the case of B2, the binding result in data set [2] is listed as “binds”.
